In PMC10849882 (The Journal of Cell Biology, 2024):

Biological target: the molecule itself
Test: negative stain EM

B1: IMPDH1(514)-S477D (enzyme)
chain: not shown
B1: binds.

B2: IMPDH1(514)-WT (enzyme)
chain: not shown
B2: binds.
